PMC12199161, “Structural and functional studies of the main replication protein NS1 of human parvovirus B19” (Nucleic Acids Research, 2025)
Several values for one entry are separate records, joined by “and”; a condition that tells them apart may be missing. Equal values may be shown once.

Assays:
[1] = target: T1, NS1_2-570 (Human parvovirus B19 isolate AU, UniProt P07298); assay: cryo-EM structure of complex; assay type: binding; settings: Mg2+ (5 mM MgCl2 in DNA complexes); Walker A site, one AMPPNP per protomer; DNA-free dodecamer; also ternary complexes with ssDNA (3.3 Å, hexamer) and dsDNA (3.43 Å, dodecamer)
T1 construct: gene NS1; residues 2-570 of 671 (Nuc, OD, SF3 HD, TAD; ZnD missing); N-terminal His-MBP tag, TEV-treated; codon-optimized cDNA; E. coli Rosetta (DE3); monomer 62 kDa; ~830 kDa oligomer by gel filtration

[2] = target: NS1_2-570 (Human parvovirus B19 (B19V), UniProt I7BP20 2-570); assay: EMSA; no ATP or Mg2+ listed; settings: protein: recombinant; tags: N-terminal His6-MBP, TEV protease treated; chain copies: 12; label: 5'-FAM on top strand; blunt
[3] = target: the molecule itself; assay: SEC; NS1_200-501 (WT and 3G mutant) on Superdex 200 Increase 10/30 GL
[4] = target: the molecule itself; assay: cryo-EM structure

T1 sequence (P07298 2-570): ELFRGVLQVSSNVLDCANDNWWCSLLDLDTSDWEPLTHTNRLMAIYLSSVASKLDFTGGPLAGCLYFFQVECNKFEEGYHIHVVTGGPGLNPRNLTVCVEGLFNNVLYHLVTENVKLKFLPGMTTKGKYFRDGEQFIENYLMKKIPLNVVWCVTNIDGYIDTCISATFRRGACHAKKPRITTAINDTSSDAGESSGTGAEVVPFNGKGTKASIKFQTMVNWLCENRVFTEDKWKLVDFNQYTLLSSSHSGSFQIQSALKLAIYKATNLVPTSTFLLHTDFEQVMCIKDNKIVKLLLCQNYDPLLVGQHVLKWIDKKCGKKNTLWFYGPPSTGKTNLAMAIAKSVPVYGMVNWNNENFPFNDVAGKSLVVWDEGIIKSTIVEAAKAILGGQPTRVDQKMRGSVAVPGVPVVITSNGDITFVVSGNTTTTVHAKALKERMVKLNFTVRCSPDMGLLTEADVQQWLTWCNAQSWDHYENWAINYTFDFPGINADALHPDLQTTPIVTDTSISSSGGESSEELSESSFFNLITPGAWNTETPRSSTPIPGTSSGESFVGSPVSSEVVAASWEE

With `Nc1ncnc2c1ncn2[C@@H]1O[C@H](COP(=O)(O)OP(=O)(O)NP(=O)(O)O)[C@@H](O)[C@H]1O` [AMPPNP] the AMPPNP binding site [1] was “one AMPPNP molecule is captured at the characteristic Walker A region of each NS1 protomer”.

B1: duplex DNA-1 (dsDNA)
DNA 1: AAGAAGACACCAAATCAGATGCCGCCGGTCGCCGCCGGTAGGCGGGAC
DNA 2: GTCCCGCCTACCGGCGGCGACCGGCGGCATCTGATTTGGTGTCTTCTT
B1: binds [2].

B2: NS1_200-501 protein (domain or fragment)
chain: AEVVPFNGKGTKASIKFQTMVNWLCENRVFTEDKWKLVDFNQYTLLSSSHSGSFQIQSALKLAIFKATNLVPTSTFLLHTDFEQVMCIKDNKIVKLLLCQNYDPLLVGQHVLKWIDKKCGKKNTLWFYGPPSTGKTNLAMAIAKSVPVYGMVNWNNENFPFNDVAGKSLVVWDEGIIKSTIVEAAKAILGGQPTRVDQKMRGSVAVPGVPVVITSNGDITFVVSGNTTTTVHAKALKERMVKLNFTVRCSPDMGLLTEADVQQWLTWCNAQSWDHYENWAINYTFDFPGINADALHPDLQTT
notes: source: E. coli Rosetta (DE3), purified
For B2, the “stoichiometry N” value [3] was 12.

B3: B19V NS1_2-570 protein (domain or fragment)
chain: ELFRGVLQVSSNVLDCANDNWWCSLLDLDTSDWEPLTHTNRLMAIYLSSVASKLDFTGGPLAGCLYFFQVECNKFEEGYHIHVVIGGPGLNPRNLTVCVEGLFNNVLYHLVTENVKLKFLPGMTTKGKYFRDGEQFIENYLMKKIPLNVVWCVTNIDGYIDTCISATFRRGACHAKKPRITTAINDTSSDAGESSGTGAEVVPFNGKGTKASIKFQTMVNWLCENRVFTEDKWKLVDFNQYTLLSSSHSGSFQIQSALKLAIFKATNLVPTSTFLLHTDFEQVMCIKDNKIVKLLLCQNYDPLLVGQHVLKWIDKKCGKKNTLWFYGPPSTGKTNLAMAIAKSVPVYGMVNWNNENFPFNDVAGKSLVVWDEGIIKSTIVEAAKAILGGQPTRVDQKMRGSVAVPGVPVVITSNGDITFVVSGNTTTTVHAKALKERMVKLNFTVRCSPDMGLLTEADVQQWLTWCNAQSWDHYENWAINYTFDFPGINADALHPDLQTTPIVTDTSISSSGGESSEELSESSFFNLITPGAWNTETPRSSTPIPGTSSGESFVGSSVSSEVVAASWEE
notes: source: E. coli Rosetta (DE3), purified (HisTrap, heparin, TEV protease, HisTrap, Superose 6 gel filtration)
B3 was tested, and the “stoichiometry N” value [4] was 12 and 6.
